Results from IntAct's records for PubMed 31515488.

B1: Zinc finger protein with KRAB and SCAN domains 4 (Homo sapiens), Q969J2 (parent)
chain: MAREPRKNAALDAQSAEDQTGLLTVKVEKEEASALTAEVRAPCSPARGPERSRQRFRGFRYPEAAGPREALSRLRELCGQWLQPEMHSKEQILELLVLEQFLTILPGNLQSWVREQHPESGEEVVVLLEYLERQLDEPAPQVPVGDQGQELLCCKMALLTQTQGSQSSQCQPMKALFKHESLGSQPLHDRVLQVPGLAQGGCCREDAMVASRLTPGSQGLLKMEDVALTLTPGWTQLDSSQVNLYRDEKQENHSSLVSLGGEIQTKSRDLPPVKKLPEKEHGKICHLREDIAQIPTHAEAGEQEGRLQRKQKNAIGSRRHYCHECGKSFAQSSGLTKHRRIHTGEKPYECEDCGKTFIGSSALVIHQRVHTGEKPYECEECGKVFSHSSNLIKHQRTHTGEKPYECDDCGKTFSQSCSLLEHHKIHTGEKPYQCNMCGKAFRRNSHLLRHQRIHGDKNVQNPEHGESWESQGRTESQWENTEAPVSYKCNECERSFTRNRSLIEHQKIHTGEKPYQCDTCGKGFTRTSYLVQHQRSHVGKKTLSQ
B2: Break repair meiotic recombinase recruitment factor 1 (Homo sapiens), Q0VDD7 (parent)
chain: MTKRKKLRTSGEGLCPPKPLKNPRLGDFYGDPQSSMLGCLHHPEEPEGKLGPVPSTQQHGEEPGKAVSSSPDEETGSPCRLLRQPEKEPAPLPPSQNSFGRFVPQFAKSRKTVTRKEEMKDEDRGSGAFSLETIAESSAQSPGCQLLVETLGVPLQEATELGDPTQADSARPEQSSQSPVQAVPGSGDSQPDDPPDRGTGLSASQRASQDHLSEQGADDSKPETDRVPGDGGQKEHLPSIDSEGEKPDRGAPQEGGAQRTAGAGLPGGPQEEGDGVPCTPASAPTSGPAPGLGPASWCLEPGSVAQGSPDPQQTPSRMGREGEGTHSSLGCSSLGMVVIADLSTDPTELEERALEVAGPDGQASAISPASPRRKAADGGHRRALPGCTSLTGETTGESGEAGQDGKPPGDVLVGPTASLALAPGSGESMMGAGDSGHASPDTGPCVNQKQEPGPAQEEAELGGQNLERDLEGFRVSPQASVVLEHREIADDPLQEPGAQQGIPDTTSELAGQRDHLPHSADQGTWADSLAVELDFLLDSQIQDALDASDFEAPPEQLFPSGNKPGPCWPGPSSHANGDPVAVAKAQPRTFVGIQASEASRMEDATNVVRGLIVELSNLNRLIMGTHRDLEAFKRLNYRKTKLGGKAPLPYPSKGPGNIPRGDPPWREL
partner: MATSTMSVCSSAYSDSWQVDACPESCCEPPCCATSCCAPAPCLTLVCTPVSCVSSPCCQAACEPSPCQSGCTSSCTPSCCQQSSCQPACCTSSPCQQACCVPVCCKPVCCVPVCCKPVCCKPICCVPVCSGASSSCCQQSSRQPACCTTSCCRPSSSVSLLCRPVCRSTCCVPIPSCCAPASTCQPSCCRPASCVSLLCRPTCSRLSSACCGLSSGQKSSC

Variants of: B1
Details: with zsc32_human ZSCAN32, Q9NX65
zsc32_human ZSCAN32, Q9NX65, sequence (Q9NX65 whole entry): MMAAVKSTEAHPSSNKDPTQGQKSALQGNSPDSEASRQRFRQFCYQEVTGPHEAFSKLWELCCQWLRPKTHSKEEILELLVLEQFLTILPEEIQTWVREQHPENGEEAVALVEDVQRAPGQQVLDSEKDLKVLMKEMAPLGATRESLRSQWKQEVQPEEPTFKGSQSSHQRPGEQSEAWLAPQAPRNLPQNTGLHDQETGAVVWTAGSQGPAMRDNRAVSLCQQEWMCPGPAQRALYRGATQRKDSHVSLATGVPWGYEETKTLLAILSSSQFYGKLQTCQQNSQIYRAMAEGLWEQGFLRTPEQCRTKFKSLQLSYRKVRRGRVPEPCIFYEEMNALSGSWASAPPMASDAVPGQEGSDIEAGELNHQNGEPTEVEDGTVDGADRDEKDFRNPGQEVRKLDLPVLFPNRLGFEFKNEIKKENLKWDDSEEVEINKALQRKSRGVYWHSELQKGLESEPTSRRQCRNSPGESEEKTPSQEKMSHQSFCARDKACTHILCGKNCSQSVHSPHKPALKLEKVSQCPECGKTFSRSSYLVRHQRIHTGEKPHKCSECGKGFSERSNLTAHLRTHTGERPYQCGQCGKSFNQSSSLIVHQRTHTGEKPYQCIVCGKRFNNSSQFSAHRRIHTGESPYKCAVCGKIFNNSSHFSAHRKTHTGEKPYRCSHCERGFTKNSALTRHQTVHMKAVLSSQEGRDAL

Row | effect of a mutation on the interaction | Variant
1 | with no effect | MAREPRKNAALDAQSAEDQTGLLTVKVEKEEAFALTAEVRAPCSPARGPERSRQRFRGFRYPEAAGPREALSRLRELCGQWLQPEMHSKEQILELLVLEQFLTILPGNLQSWVREQHPESGEEVVVLLEYLERQLDEPAPQVPVGDQGQELLCCKMALLTQTQGSQSSQCQPMKALFKHESLGSQPLHDRVLQVPGLAQGGCCREDAMVASRLTPGSQGLLKMEDVALTLTPGWTQLDSSQVNLYRDEKQENHSSLVSLGGEIQTKSRDLPPVKKLPEKEHGKICHLREDIAQIPTHAEAGEQEGRLQRKQKNAIGSRRHYCHECGKSFAQSSGLTKHRRIHTGEKPYECEDCGKTFIGSSALVIHQRVHTGEKPYECEECGKVFSHSSNLIKHQRTHTGEKPYECDDCGKTFSQSCSLLEHHKIHTGEKPYQCNMCGKAFRRNSHLLRHQRIHGDKNVQNPEHGESWESQGRTESQWENTEAPVSYKCNECERSFTRNRSLIEHQKIHTGEKPYQCDTCGKGFTRTSYLVQHQRSHVGKKTLSQ [S33F]
2 | with no effect | MAREPRKNAALDAQSAEDQTGFLTVKVEKEEASALTAEVRAPCSPARGPERSRQRFRGFRYPEAAGPREALSRLRELCGQWLQPEMHSKEQILELLVLEQFLTILPGNLQSWVREQHPESGEEVVVLLEYLERQLDEPAPQVPVGDQGQELLCCKMALLTQTQGSQSSQCQPMKALFKHESLGSQPLHDRVLQVPGLAQGGCCREDAMVASRLTPGSQGLLKMEDVALTLTPGWTQLDSSQVNLYRDEKQENHSSLVSLGGEIQTKSRDLPPVKKLPEKEHGKICHLREDIAQIPTHAEAGEQEGRLQRKQKNAIGSRRHYCHECGKSFAQSSGLTKHRRIHTGEKPYECEDCGKTFIGSSALVIHQRVHTGEKPYECEECGKVFSHSSNLIKHQRTHTGEKPYECDDCGKTFSQSCSLLEHHKIHTGEKPYQCNMCGKAFRRNSHLLRHQRIHGDKNVQNPEHGESWESQGRTESQWENTEAPVSYKCNECERSFTRNRSLIEHQKIHTGEKPYQCDTCGKGFTRTSYLVQHQRSHVGKKTLSQ [L22F]

Variants of: B1
Details: with zksc7_human ZKSCAN7, Q9P0L1
zksc7_human ZKSCAN7, Q9P0L1, sequence (Q9P0L1 whole entry): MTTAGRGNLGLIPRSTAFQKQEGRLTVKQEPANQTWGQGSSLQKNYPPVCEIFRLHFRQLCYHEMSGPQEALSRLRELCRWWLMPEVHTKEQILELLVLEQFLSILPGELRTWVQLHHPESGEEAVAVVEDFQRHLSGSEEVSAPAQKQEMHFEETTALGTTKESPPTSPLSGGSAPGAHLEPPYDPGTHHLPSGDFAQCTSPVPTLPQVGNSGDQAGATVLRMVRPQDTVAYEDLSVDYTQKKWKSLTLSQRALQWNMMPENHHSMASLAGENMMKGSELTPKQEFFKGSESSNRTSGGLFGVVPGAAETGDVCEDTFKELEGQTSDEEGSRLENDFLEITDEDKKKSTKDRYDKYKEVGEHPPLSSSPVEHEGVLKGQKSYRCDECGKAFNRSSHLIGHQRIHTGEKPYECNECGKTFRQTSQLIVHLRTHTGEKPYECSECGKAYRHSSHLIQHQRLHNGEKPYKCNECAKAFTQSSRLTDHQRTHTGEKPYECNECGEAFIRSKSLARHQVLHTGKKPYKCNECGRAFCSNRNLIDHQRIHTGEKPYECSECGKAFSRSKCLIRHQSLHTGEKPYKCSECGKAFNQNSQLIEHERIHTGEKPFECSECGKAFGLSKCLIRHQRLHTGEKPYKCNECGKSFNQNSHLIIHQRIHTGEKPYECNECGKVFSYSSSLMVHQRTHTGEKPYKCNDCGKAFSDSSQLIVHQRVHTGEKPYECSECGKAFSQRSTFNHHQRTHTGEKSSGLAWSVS

Row | effect of a mutation on the interaction | Variant
3 | with no effect | MAREPRKNAALDAQSAEDQTGLLTVKVEKEEAFALTAEVRAPCSPARGPERSRQRFRGFRYPEAAGPREALSRLRELCGQWLQPEMHSKEQILELLVLEQFLTILPGNLQSWVREQHPESGEEVVVLLEYLERQLDEPAPQVPVGDQGQELLCCKMALLTQTQGSQSSQCQPMKALFKHESLGSQPLHDRVLQVPGLAQGGCCREDAMVASRLTPGSQGLLKMEDVALTLTPGWTQLDSSQVNLYRDEKQENHSSLVSLGGEIQTKSRDLPPVKKLPEKEHGKICHLREDIAQIPTHAEAGEQEGRLQRKQKNAIGSRRHYCHECGKSFAQSSGLTKHRRIHTGEKPYECEDCGKTFIGSSALVIHQRVHTGEKPYECEECGKVFSHSSNLIKHQRTHTGEKPYECDDCGKTFSQSCSLLEHHKIHTGEKPYQCNMCGKAFRRNSHLLRHQRIHGDKNVQNPEHGESWESQGRTESQWENTEAPVSYKCNECERSFTRNRSLIEHQKIHTGEKPYQCDTCGKGFTRTSYLVQHQRSHVGKKTLSQ [S33F]
4 | with no effect | MAREPRKNAALDAQSAEDQTGFLTVKVEKEEASALTAEVRAPCSPARGPERSRQRFRGFRYPEAAGPREALSRLRELCGQWLQPEMHSKEQILELLVLEQFLTILPGNLQSWVREQHPESGEEVVVLLEYLERQLDEPAPQVPVGDQGQELLCCKMALLTQTQGSQSSQCQPMKALFKHESLGSQPLHDRVLQVPGLAQGGCCREDAMVASRLTPGSQGLLKMEDVALTLTPGWTQLDSSQVNLYRDEKQENHSSLVSLGGEIQTKSRDLPPVKKLPEKEHGKICHLREDIAQIPTHAEAGEQEGRLQRKQKNAIGSRRHYCHECGKSFAQSSGLTKHRRIHTGEKPYECEDCGKTFIGSSALVIHQRVHTGEKPYECEECGKVFSHSSNLIKHQRTHTGEKPYECDDCGKTFSQSCSLLEHHKIHTGEKPYQCNMCGKAFRRNSHLLRHQRIHGDKNVQNPEHGESWESQGRTESQWENTEAPVSYKCNECERSFTRNRSLIEHQKIHTGEKPYQCDTCGKGFTRTSYLVQHQRSHVGKKTLSQ [L22F]

Variants of: B1
Details: with znf24_human ZNF24, P17028
znf24_human ZNF24, P17028, sequence (P17028 whole entry): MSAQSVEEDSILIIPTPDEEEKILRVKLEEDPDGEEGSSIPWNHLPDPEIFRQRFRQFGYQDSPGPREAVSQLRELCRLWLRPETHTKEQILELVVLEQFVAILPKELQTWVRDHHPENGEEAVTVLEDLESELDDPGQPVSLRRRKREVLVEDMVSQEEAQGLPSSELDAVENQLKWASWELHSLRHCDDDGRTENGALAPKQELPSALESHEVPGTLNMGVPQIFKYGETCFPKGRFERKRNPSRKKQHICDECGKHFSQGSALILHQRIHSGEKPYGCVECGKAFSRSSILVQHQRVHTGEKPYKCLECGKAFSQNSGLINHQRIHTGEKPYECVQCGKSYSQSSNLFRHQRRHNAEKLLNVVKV

Row | effect of a mutation on the interaction | Variant
5 | with no effect | MAREPRKNAALDAQSAEDQTGLLTVKVEKEEAFALTAEVRAPCSPARGPERSRQRFRGFRYPEAAGPREALSRLRELCGQWLQPEMHSKEQILELLVLEQFLTILPGNLQSWVREQHPESGEEVVVLLEYLERQLDEPAPQVPVGDQGQELLCCKMALLTQTQGSQSSQCQPMKALFKHESLGSQPLHDRVLQVPGLAQGGCCREDAMVASRLTPGSQGLLKMEDVALTLTPGWTQLDSSQVNLYRDEKQENHSSLVSLGGEIQTKSRDLPPVKKLPEKEHGKICHLREDIAQIPTHAEAGEQEGRLQRKQKNAIGSRRHYCHECGKSFAQSSGLTKHRRIHTGEKPYECEDCGKTFIGSSALVIHQRVHTGEKPYECEECGKVFSHSSNLIKHQRTHTGEKPYECDDCGKTFSQSCSLLEHHKIHTGEKPYQCNMCGKAFRRNSHLLRHQRIHGDKNVQNPEHGESWESQGRTESQWENTEAPVSYKCNECERSFTRNRSLIEHQKIHTGEKPYQCDTCGKGFTRTSYLVQHQRSHVGKKTLSQ [S33F]
6 | with no effect | MAREPRKNAALDAQSAEDQTGFLTVKVEKEEASALTAEVRAPCSPARGPERSRQRFRGFRYPEAAGPREALSRLRELCGQWLQPEMHSKEQILELLVLEQFLTILPGNLQSWVREQHPESGEEVVVLLEYLERQLDEPAPQVPVGDQGQELLCCKMALLTQTQGSQSSQCQPMKALFKHESLGSQPLHDRVLQVPGLAQGGCCREDAMVASRLTPGSQGLLKMEDVALTLTPGWTQLDSSQVNLYRDEKQENHSSLVSLGGEIQTKSRDLPPVKKLPEKEHGKICHLREDIAQIPTHAEAGEQEGRLQRKQKNAIGSRRHYCHECGKSFAQSSGLTKHRRIHTGEKPYECEDCGKTFIGSSALVIHQRVHTGEKPYECEECGKVFSHSSNLIKHQRTHTGEKPYECDDCGKTFSQSCSLLEHHKIHTGEKPYQCNMCGKAFRRNSHLLRHQRIHGDKNVQNPEHGESWESQGRTESQWENTEAPVSYKCNECERSFTRNRSLIEHQKIHTGEKPYQCDTCGKGFTRTSYLVQHQRSHVGKKTLSQ [L22F]

Variants of: B1
Details: with zn496_human ZNF496, Q96IT1
zn496_human ZNF496, Q96IT1, sequence (Q96IT1 whole entry): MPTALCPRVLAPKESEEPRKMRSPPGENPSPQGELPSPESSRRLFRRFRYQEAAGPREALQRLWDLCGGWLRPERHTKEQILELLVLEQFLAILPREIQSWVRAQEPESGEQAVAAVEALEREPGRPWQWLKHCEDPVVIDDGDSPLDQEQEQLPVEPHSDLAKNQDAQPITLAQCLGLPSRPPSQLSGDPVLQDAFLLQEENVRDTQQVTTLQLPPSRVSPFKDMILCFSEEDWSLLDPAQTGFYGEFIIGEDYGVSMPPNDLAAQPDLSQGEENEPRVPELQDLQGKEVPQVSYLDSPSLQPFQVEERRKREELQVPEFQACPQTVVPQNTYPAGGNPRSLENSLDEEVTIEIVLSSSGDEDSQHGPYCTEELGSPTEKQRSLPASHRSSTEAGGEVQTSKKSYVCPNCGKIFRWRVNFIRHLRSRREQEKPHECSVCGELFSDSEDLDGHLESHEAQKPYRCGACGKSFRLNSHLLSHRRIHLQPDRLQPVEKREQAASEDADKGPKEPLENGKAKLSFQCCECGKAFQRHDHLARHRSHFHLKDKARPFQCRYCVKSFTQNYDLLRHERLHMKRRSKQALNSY

Row | effect of a mutation on the interaction | Variant
7 | with no effect | MAREPRKNAALDAQSAEDQTGLLTVKVEKEEAFALTAEVRAPCSPARGPERSRQRFRGFRYPEAAGPREALSRLRELCGQWLQPEMHSKEQILELLVLEQFLTILPGNLQSWVREQHPESGEEVVVLLEYLERQLDEPAPQVPVGDQGQELLCCKMALLTQTQGSQSSQCQPMKALFKHESLGSQPLHDRVLQVPGLAQGGCCREDAMVASRLTPGSQGLLKMEDVALTLTPGWTQLDSSQVNLYRDEKQENHSSLVSLGGEIQTKSRDLPPVKKLPEKEHGKICHLREDIAQIPTHAEAGEQEGRLQRKQKNAIGSRRHYCHECGKSFAQSSGLTKHRRIHTGEKPYECEDCGKTFIGSSALVIHQRVHTGEKPYECEECGKVFSHSSNLIKHQRTHTGEKPYECDDCGKTFSQSCSLLEHHKIHTGEKPYQCNMCGKAFRRNSHLLRHQRIHGDKNVQNPEHGESWESQGRTESQWENTEAPVSYKCNECERSFTRNRSLIEHQKIHTGEKPYQCDTCGKGFTRTSYLVQHQRSHVGKKTLSQ [S33F]
8 | with no effect | MAREPRKNAALDAQSAEDQTGFLTVKVEKEEASALTAEVRAPCSPARGPERSRQRFRGFRYPEAAGPREALSRLRELCGQWLQPEMHSKEQILELLVLEQFLTILPGNLQSWVREQHPESGEEVVVLLEYLERQLDEPAPQVPVGDQGQELLCCKMALLTQTQGSQSSQCQPMKALFKHESLGSQPLHDRVLQVPGLAQGGCCREDAMVASRLTPGSQGLLKMEDVALTLTPGWTQLDSSQVNLYRDEKQENHSSLVSLGGEIQTKSRDLPPVKKLPEKEHGKICHLREDIAQIPTHAEAGEQEGRLQRKQKNAIGSRRHYCHECGKSFAQSSGLTKHRRIHTGEKPYECEDCGKTFIGSSALVIHQRVHTGEKPYECEECGKVFSHSSNLIKHQRTHTGEKPYECDDCGKTFSQSCSLLEHHKIHTGEKPYQCNMCGKAFRRNSHLLRHQRIHGDKNVQNPEHGESWESQGRTESQWENTEAPVSYKCNECERSFTRNRSLIEHQKIHTGEKPYQCDTCGKGFTRTSYLVQHQRSHVGKKTLSQ [L22F]

Variants of: B2
Details: with kr103_human KRTAP10-3, P60369

Row | effect of a mutation on the interaction | Variant
9 | with no effect | N576S
10 | with no effect | Q500R

More lines, now with the values behind:

Row | Variant | effect of a mutation on the interaction
11 | L155F | with no effect
12 | G267R | with no effect
